Article PMC12795676, “Integrin α5β1 mediates the inhibitory effects of vasoinhibin on angiogenesis and vascular permeability [image fx1.gif]” (The Journal of Biological Chemistry, 2025)
No end group written: not given here.

B1: biotinylated peptide comprising residues 45 to 51 of vasoinhibin (B-Vi45-51) (peptide, UniProt P01236 73-79, looked up)
peptide: THGRGFI
modifications: also: biotin, position not given here
notes: vasoinhibin (fragment of prolactin), residues 45 to 51, holds the HGR motif (H46, R48 printed); also called biotinylated Vi45-51; source: synthetic peptide, bought: GenScript
B2: vasoinhibin (Vi) (domain or fragment, UniProt P01236 29-151, looked up)
chain: LPICPGGAARCQVTLRDLFDRAVVLSHYIHNLSSEMFSEFDKRYTHGRGFITKAINSCHTSSLATPEDKEQAQQMNQKDFLSLIVSILRSWNEPLYHLVTEVRGMQEAPEAILSKAVEIEEQT
notes: vasoinhibin, a fragment of the hormone prolactin; also called 16K prolactin

Legend:
Conditions in all cases: both partners purified
[1] = target: T1, recombinant human integrin α5β1 (human, UniProt P08648 42-995; P05556 21-728); assay: SPR; B-Vi45-51 (100 nM) immobilised on a streptavidin SA chip (Biacore 1K); integrin α5β1 injected at 30 μl/min, 60 s association/dissociation; HBS-P, 150 mM NaCl, 1 mM MnCl2, pH 7.4; 1:1 model (legend: steady-state)
T1 construct: integrin α5 subunit, human, recombinant; integrin β1 subunit, human, recombinant; No catalogue number is printed; also called α5β1 integrin; source: bought: Bio-Techne

[2] = target: plasminogen activator inhibitor-1 (PAI-1), immobilised on ELISA plates (UniProt P05121 24-402); assay: ELISA; plates coated with 2 μg/mL integrin α5β1, PAI-1 or PAI-1-uPA complex; incubated with B-Vi45-51 or Vi (dose-dependent) or 100 nM Vi mutants; horseradish peroxidase antibodies and TMB
[3] = target: T2, PAI-1-uPA complex, immobilised on ELISA plates (UniProt P05121 24-402; P00749 21-431); assay: as above
T2 construct: the methods print '(37 °C, 10 min)' after the complex

[4] = target: T1, recombinant human integrin α5β1; assay: as above

T1 sequence (P08648 42-995, chain 1 of 2): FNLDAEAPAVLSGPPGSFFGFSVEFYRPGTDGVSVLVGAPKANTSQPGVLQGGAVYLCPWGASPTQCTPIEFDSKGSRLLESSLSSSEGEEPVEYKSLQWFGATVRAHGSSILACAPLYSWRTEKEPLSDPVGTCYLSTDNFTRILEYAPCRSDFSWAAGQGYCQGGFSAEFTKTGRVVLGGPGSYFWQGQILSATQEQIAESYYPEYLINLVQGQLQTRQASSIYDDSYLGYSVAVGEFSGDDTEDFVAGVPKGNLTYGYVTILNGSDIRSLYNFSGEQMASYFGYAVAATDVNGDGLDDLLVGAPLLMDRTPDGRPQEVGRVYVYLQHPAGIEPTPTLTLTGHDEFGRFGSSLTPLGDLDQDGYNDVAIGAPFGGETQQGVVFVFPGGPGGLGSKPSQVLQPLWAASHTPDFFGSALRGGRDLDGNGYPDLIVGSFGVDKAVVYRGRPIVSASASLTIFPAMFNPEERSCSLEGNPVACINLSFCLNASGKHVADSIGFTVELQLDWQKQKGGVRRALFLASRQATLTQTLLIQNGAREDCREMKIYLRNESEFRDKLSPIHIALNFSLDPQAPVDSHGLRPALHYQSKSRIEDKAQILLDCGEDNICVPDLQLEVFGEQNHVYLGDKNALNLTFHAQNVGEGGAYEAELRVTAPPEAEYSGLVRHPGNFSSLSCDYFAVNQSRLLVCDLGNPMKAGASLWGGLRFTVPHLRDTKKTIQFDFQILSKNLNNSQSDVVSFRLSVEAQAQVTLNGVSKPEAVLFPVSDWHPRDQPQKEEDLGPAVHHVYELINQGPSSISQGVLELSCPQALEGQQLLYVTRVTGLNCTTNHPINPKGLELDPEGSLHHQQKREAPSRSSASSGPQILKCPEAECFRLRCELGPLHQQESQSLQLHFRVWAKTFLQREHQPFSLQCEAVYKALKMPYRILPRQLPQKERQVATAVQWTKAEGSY
T1 sequence (P05556 21-728, chain 2 of 2): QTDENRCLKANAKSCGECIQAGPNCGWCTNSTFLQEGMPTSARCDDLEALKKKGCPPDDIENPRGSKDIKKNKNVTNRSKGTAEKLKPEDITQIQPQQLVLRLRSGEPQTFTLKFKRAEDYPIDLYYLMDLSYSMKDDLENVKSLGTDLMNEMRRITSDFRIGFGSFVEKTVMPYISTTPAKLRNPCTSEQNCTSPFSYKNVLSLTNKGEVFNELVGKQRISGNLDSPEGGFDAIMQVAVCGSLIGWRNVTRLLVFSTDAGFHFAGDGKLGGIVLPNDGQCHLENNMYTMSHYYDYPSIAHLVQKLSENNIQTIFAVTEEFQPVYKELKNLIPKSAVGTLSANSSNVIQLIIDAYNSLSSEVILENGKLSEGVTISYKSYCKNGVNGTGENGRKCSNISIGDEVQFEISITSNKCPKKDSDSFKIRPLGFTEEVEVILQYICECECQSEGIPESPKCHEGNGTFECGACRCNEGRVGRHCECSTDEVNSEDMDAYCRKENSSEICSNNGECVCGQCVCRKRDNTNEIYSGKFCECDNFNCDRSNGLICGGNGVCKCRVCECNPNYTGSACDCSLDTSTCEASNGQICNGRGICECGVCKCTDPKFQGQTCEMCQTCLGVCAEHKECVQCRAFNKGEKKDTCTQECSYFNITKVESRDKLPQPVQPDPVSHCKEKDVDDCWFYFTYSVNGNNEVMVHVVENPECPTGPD
plasminogen activator inhibitor-1 (PAI-1), immobilised on ELISA plates, sequence (P05121 24-402): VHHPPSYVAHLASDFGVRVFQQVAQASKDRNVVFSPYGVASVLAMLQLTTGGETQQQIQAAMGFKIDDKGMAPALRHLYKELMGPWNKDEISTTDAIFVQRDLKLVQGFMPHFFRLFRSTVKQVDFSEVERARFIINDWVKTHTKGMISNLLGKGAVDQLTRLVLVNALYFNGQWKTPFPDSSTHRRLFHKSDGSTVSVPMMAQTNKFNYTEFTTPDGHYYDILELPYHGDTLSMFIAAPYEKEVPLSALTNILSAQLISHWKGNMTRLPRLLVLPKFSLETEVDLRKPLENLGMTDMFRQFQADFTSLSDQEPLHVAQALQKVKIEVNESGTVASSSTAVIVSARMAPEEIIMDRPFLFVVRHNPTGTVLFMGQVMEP
T2 sequence (P05121 24-402, chain 1 of 2, other chains not shown): as the sequence (P05121 24-402) above

| Binder | Kd [1] | Kd [2] | Kd [3] | Kd [4] |
| --- | --- | --- | --- | --- |
| B1 | 2740 nM | – | – | – |
| B2 | – | 528 nM | 406 nM | 383 nM |
